Measured values reported in paper PMC8186250.

Target: EBNA1 DBD WT (Epstein-Barr virus (B95-8), UniProt P03211 459-607)
Assay: SDS-EMSA

EBNA1 DBD WT, sequence (P03211 459-607): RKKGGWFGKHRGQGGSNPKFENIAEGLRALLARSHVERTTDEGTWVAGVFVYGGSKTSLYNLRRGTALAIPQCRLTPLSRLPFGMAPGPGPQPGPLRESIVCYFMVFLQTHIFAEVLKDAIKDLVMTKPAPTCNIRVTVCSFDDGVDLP

B1: 2xFR (dsDNA)
DNA 1: ATTAGGATAGCCTATGCTACCCAGATATAGATTAGGATAGCATATGCTACCCAGATATAGAGAGCGTCACCTAAGCC
DNA 2: GGCTTAGGTGACGCTCTATATCTGGGTAGCATATGCTATCCTAATCTATATCTGGGTAGCATAGGCTATCCTAAT
B1: binds.
